This assay deals with T1, soluble human CD3 epsilon chain (human, UniProt P07766 23-126).
T1 construct: also called CD3ε
Description: SPR.

Where a chain is given by its changes, count along the chain named.

T1 sequence (P07766 23-126 limits assumed): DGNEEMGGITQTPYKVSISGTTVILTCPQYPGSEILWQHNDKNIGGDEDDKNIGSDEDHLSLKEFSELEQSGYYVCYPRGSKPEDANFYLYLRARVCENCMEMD

B1: rCE115H-G1dh//-Hi-Kn010G3/L0000-k0 (antibody, V domains shown)
VH: EVQLVETGGSLVQPGKSLKLTCATSGFTFSNAWMHWVRQSPEKQLEWVAQIKAKSNNYATYYAESVKGRFTISRDDSKSNIYLQMNSLKEEDTAVYYCRYVHYGAYYGVDAWGQGTSVTVSS
VL: DIVMTQSPLSLPVTPGEPASISCRSSQSLVHSNRNTYLHWYQQKPGQAPRLLIYKVSNRFSGVPDRFSGSGSGTDFTLKISRVEAEDVGVYYCGQGTQVPYTFGQGTKLEIKR
notes: one-arm
For the molecule B1, binding was characterised by a dissociation constant (Kd) of 0.0576 µM.

B2: rCE115H-E22Hh/none-Hi-Kn010G3/L0000vk1-k0 (antibody, human IgG1, L234A L235A, N297A, V domains shown)
VH: B1 VH
VL: DIQMTQSPSSLSASVGDRVTITCRSSQSLVHSNRNTYLHWYQQKPGKAPKLLIYKVSNRFSGVPSRFSGSGSGTDFTFTISSLQPEDIATYYCGQGTQVPYTFGQGTKVEIK
notes: one-arm
Consider B2, for which the Kd was found to be 0.0852 µM. This Kd and that of the molecule before are within 1.5-fold of each other.

B3: rCE115H-E22Hh/none-Hi-Kn010G3/L0000-k0 (antibody, human IgG1, kappa, L234A L235A, N297A, V domains shown)
VH: B1 VH
VL: B1 VL
notes: one-arm
In the case of B3, binding was characterised by a dissociation constant (Kd) of 0.08 µM.

B4: TR01H080-E22Hh/none-Hi-Kn010G3/L0000-k0 (antibody, V domains shown)
VH: QVQLVESGGGLVQPGRSLRLSCAASGFTFSNAWMHWVRQAPGKGLEWVAQIKDKSNNYATYYAESVKGRFTISRADSKNSIYLQMNSLKTEDTAVYYCRYVHYAAVRRRLSSYGVDIWGQGTTVTVSS
VL: B1 VL
notes: one-arm
In turn, B4 came in with a Kd of 0.00325 µM.

B5: TR01H079-E22Hh/none-Hi-Kn010G3/L0000-k0 (antibody, V domains shown)
VH: B4 VH with V106A, R107E, R108M, R109V, L110R, S111D
VL: B1 VL
notes: one-arm
With B5, the dissociation constant (Kd) is 0.0505 µM.

B6: TR01H040-E22Hh/none-Hi-Kn010G3/TR01L011-k0 (antibody, V domains shown)
VH: QVQLVESGGGLVQPGRSLRLSCAASGFTFSNAWMHWVRQAPGKGLEWVAQIKDKSQNYATYYAESVKGRFTISRADSKNSIYLQMNSLKTEDTAVYYCRYVHYSASYGVDAWGQGTTVTVSS
VL: DIVMTQSPLSLPVTPGEPASISCQASESLVHSNRNTYLHWYQQKPGQAPRLLIYKVSNRFRGVPDRFSGSGSGTDFTLKISRVEAEDVGVYYCGQGTQVPYTFGQGTKVEIE
notes: one-arm
B6 registered a Kd of 0.0357 µM.

B7: TR01H040-E22Hh/none-Hi-Kn010G3/TR01L007-k0 (antibody, V domains shown)
VH: B6 VH
VL: B6 VL with Q42L, A48S, R50Q, R61S, V109L, E112K
notes: one-arm
B7 displayed a Kd of 0.0682 µM.

B8: TR01H040-E22Hh/none-Hi-Kn010G3/TR01L013-k0 (antibody, V domains shown)
VH: B6 VH
VL: B6 VL with Q42L, A48S, R50Q
notes: one-arm
Molecule B8 showed a Kd of 0.0415 µM.

B9: TR01H040-E22Hh/none-Hi-Kn010G3/TR01L012-k0 (antibody, V domains shown)
VH: B6 VH
VL: B6 VL with Q24R, A25S, E27Q, Q42L, A48S, R50Q
notes: one-arm
Take B9: binding was characterised by a dissociation constant (Kd) of 0.0422 µM.

B10: TR01H040-E22Hh/none-Hi-Kn010G3/TR01L018-k0 (antibody, V domains shown)
VH: B6 VH
VL: B6 VL with L29P, Q42L, A48S, R50Q, R61S, V109L, E112K
notes: one-arm
Molecule B10 came in with a Kd of 0.0451 µM.

B11: TR01H082-E22Hh/none-Hi-Kn010G3/TR01L024-k0 (antibody, V domains shown)
VH: B6 VH with A75D, I81L, S104A, S106G
VL: B6 VL with L29P, Q42L, A48S, R50Q, R61S, G94T, V109L, E112K
notes: one-arm
As for B11, the affinity, expressed as Kd, was 0.0476 µM.

B12: TR01H040-E22Hh/none-Hi-Kn010G3/L0000vk1-k0 (antibody, V domains shown)
VH: B6 VH
VL: B2 VL
notes: one-arm
With B12, the Kd was determined as 0.0469 µM.

B13: TR01H015-E22Hh/none-Hi-Kn010G3/L0000-k0 (antibody, human IgG1, kappa, L234A L235A, N297A)
heavy: QVQLVESGGGLVQPGRSLRLSCAASGFTFSNAWMHWVRQAPGKGLEWVAQIKGKSNNYATYYAESVKGRFTISRADSKNSIYLQMNSLKTEDTAVYYCRYVHYSASYGVDIWGQGTTVTVSSASTKGPSVFPLAPSSKSTSGGTAALGCLVKDYFPEPVTVSWNSGALTSGVHTFPAVLQSSGLYSLSSVVTVPSSSLGTQTYICNVNHKPSNTKVDKKVEPKSCDKTHTCPPCPAPEAAGGPSVFLFPPKPKDTLMISRTPEVTCVVVDVSHEDPEVKFNWYVDGVEVHNAKTKPREEQYASTYRVVSVLTVLHQDWLNGKEYKCKVSNKALPAPIEKTISKAKGQPREPQVYTLPPSRCELTKNQVSLSCAVKGFYPSDIAVEWESNGQPENNYKTTPPVLDSDGSFFLVSKLTVDKSRWQQGNVFSCSVMHEALHNHYTQKSLSLSPDYKDDDDK
light: DIVMTQSPLSLPVTPGEPASISCRSSQSLVHSNRNTYLHWYQQKPGQAPRLLIYKVSNRFSGVPDRFSGSGSGTDFTLKISRVEAEDVGVYYCGQGTQVPYTFGQGTKLEIKRTVAAPSVFIFPPSDEQLKSGTASVVCLLNNFYPREAKVQWKVDNALQSGNSQESVTEQDSKDSTYSLSSTLTLSKADYEKHKVYACEVTHQGLSSPVTKSFNRGEC
notes: one-arm
Turning to B13, the equilibrium dissociation constant (Kd) is 0.0613 µM.

B14: TR01H015-E22Hh/none-Hi-Kn010G3/TR01L003-k0 (antibody, human IgG1, L234A L235A, N297A)
heavy: B13 heavy
VL: B6 VL with Q24R, A25S, E27Q, R61S
notes: one-arm
For the molecule B14, the dissociation constant (Kd) worked out at 0.0634 µM.

B15: CE115HA251-E22Hh/L0000-k0/GL4-E22Hk/H0000-E22L (bispecific antibody, human IgG1, kappa, L234A L235A, N297A)
heavy: B13 heavy with L11V, G53A, A75D, I81L, S104Y, A105Y, S106Y, I111A
light: B13 light
chain 1: DIVMTQSPLSLPVTPGEPASISCRSSQSLVHSNRNTYLHWYQQKPGQAPRLLIYKVSNRFSGVPDRFSGSGSGTDFTLKISRVEAEDVGVYYCSQNTHVPPTFGQGTKLEIKSSASTKGPSVFPLAPSSKSTSGGTAALGCLVKDYFPEPVTVSWNSGALTSGVHTFPAVLQSSGLYSLSSVVTVPSSSLGTQTYICNVNHKPSNTKVDKKVEPKSCDKTHTCPPCPAPEAAGGPSVFLFPPKPKDTLMISRTPEVTCVVVDVSHEDPEVKFNWYVDGVEVHNAKTKPREEQYASTYRVVSVLTVLHQDWLNGKEYKCKVSNKALPAPIEKTISKAKGQPREPQVCTLPPSRDELTKNQVSLWCLVKGFYPSDIAVEWESNGQPENNYKTTPPVLDSDGSFFLYSKLTVDKSRWQQGNVFSCSVMHEALHNHYTQKSLSLSPHHHHHHHH
chain 2: QVQLVQSGAEVKKPGASVKVSCKASGYTFTDYEMHWIRQPPGQGLEWIGAIDPKTGDTAYSQKFKGRVTLTADKSTSTAYMELSSLTSEDTAVYYCTRFYSYTYWGQGTLVTVSSASVAAPSVFIFPPSDEQLKSGTASVVCLLNNFYPREAKVQWKVDNALQSGNSQESVTEQDSKDSTYSLSSTLTLSKADYEKHKVYACEVTHQGLSSPVTKSFNRGEC
notes: ERY22 format
B15 came in with a dissociation constant Kd of 0.0148 µM.

B16: TR01H002-E22Hh/GLS3108-k0/GL4-E22Hk/H0000-E22L (bispecific antibody, human IgG1, kappa, L234A L235A, N297A)
heavy: QVQLVESGGGVVQPGRSLRLSCAASGFTFSNAWMHWVRQAPGKGLEWVAQIKAKSNNYKKYYAESVKGRFTISRDDSKNSLYLQMNSLKTEDTAVYYCRYVHYYYYYGVQAWGQGTTVTVSSASTKGPSVFPLAPSSKSTSGGTAALGCLVKDYFPEPVTVSWNSGALTSGVHTFPAVLQSSGLYSLSSVVTVPSSSLGTQTYICNVNHKPSNTKVDKKVEPKSCDKTHTCPPCPAPEAAGGPSVFLFPPKPKDTLMISRTPEVTCVVVDVSHEDPEVKFNWYVDGVEVHNAKTKPREEQYASTYRVVSVLTVLHQDWLNGKEYKCKVSNKALPAPIEKTISKAKGQPREPQVYTLPPSRCELTKNQVSLSCAVKGFYPSDIAVEWESNGQPENNYKTTPPVLDSDGSFFLVSKLTVDKSRWQQGNVFSCSVMHEALHNHYTQKSLSLSPDYKDDDDK
light: B13 light with H39S
chain 1: B15 chain 1
chain 2: B15 chain 2
notes: ERY22 format
Molecule B16 registered a Kd of 0.00478 µM.

B17: CE115HA236-E22Hh/GLS3108-k0/GL4-E22Hk/H0000-E22L (bispecific antibody, human IgG1, kappa, L234A L235A, N297A)
heavy: B16 heavy with K59A, K60T, Y105A
light: B13 light with H39S
chain 1: B15 chain 1
chain 2: B15 chain 2
notes: ERY22 format
Molecule B17 yielded a Kd of 0.00695 µM.

B18: TR01H015-E22Hh/none-Hi-Kn010G3/TR01L002-k0 (antibody, human IgG1, L234A L235A, N297A)
heavy: B13 heavy
VL: B6 VL with Q24R, A25S, E27Q, Q42L, A48S, R50Q, R61S, V109L, E112K
notes: one-arm
For B18, the Kd worked out at 0.0714 µM.

B19: TR01H015-E22Hh/none-Hi-Kn010G3/TR01L006-k0 (antibody, human IgG1, L234A L235A, N297A, V domains shown)
VH: B6 VH with D53G, Q56N, A111I
VL: B6 VL with Q42L, A48S, R50Q, R61S
notes: one-arm
B19 registered a Kd of 0.093 µM. This Kd and that of the molecule before are within 1.5-fold of each other.

B20: TR01H015-E22Hh/none-Hi-Kn010G3/TR01L001-k0 (antibody, human IgG1, L234A L235A, N297A)
heavy: B13 heavy
VL: B6 VL with R61S, V109L, E112K
notes: one-arm
Regarding B20, the Kd was found to be 0.0656 µM.

B21: TR01H015-E22Hh/none-Hi-Kn010G3/TR01L004-k0 (antibody, human IgG1, L234A L235A, N297A)
heavy: B13 heavy
VL: B6 VL with R61S
notes: one-arm
B21 registered a Kd of 0.0734 µM. This Kd and that of the molecule before are within 1.5-fold of each other.

B22: TR01H015-E22Hh/none-Hi-Kn010G3/TR01L005-k0 (antibody, human IgG1, L234A L235A, N297A)
heavy: B13 heavy
VL: B6 VL with Q24R, A25S, E27Q, Q42L, A48S, R50Q, R61S
notes: one-arm
For B22, the Kd was 0.0653 µM.

For the origin of these results see US20250066503A1, “CELL INJURY INDUCING THERAPEUTIC DRUG FOR USE IN CANCER THERAPY” (CHUGAI SEIYAKU KABUSHIKI KAISHA, priority 2016, published 2025).
